Data published in PMC4230329 (Biochemistry, 2014).
Residue numbers refer to the chain shown, from its start. Names may count otherwise.

B1: gankyrin-His6x (wild-type gankyrin) (natural protein)
chain: MEGCVSNLMVCNLAYSGKLEELKESILADKSLATRTDQDSRTALHWACSAGHTEIVEFLLQLGVPVNDKDDAGWSPLHIAASAGRDEIVKALLGKGAQVNAVNQNGCTPLHYAASKNRHEIAVMLLEGGANPDAKDHYEATAMHRAAAKGNLKMIHILLYYKASTNIQDTEGNTPLHLACDEERVEEAKLLVSQGASIYIENKEEKTPLQVAKGGLGLILKR
B2: gankyrin-His6x R41A/K116A (natural protein)
chain: B1 chain with R41A, K116A
B3: gankyrin K116A (natural protein)
chain: B1 chain with K116A
B4: gankyrin-His6x D39A/D71A (natural protein)
chain: B1 chain with D39A, D71A
B5: gankyrin-His6x R41A (natural protein)
chain: B1 chain with R41A
B6: gankyrin E182A (natural protein)
chain: B1 chain with E182A
B7: Grafted FtsH-S6 ATPase, His6x-tagged (wild-type) (other)
chain: MLTEDQIKTTFADVAGCDEAKEEVAELVEYLREPSRFQKLGGKIPKGVLMVGPPGTGKTLLAKAIAGEAKVPFFTISGSDFVEMFVGVGASRVRDMFEQAKKAAPCIIFIDEIDAVGRQRGAGLGGGHDEREQTLNQMLVEMDGFEGNEGIIVIAATNRPDVLDPALLRPGRFDRQVVVGLPDRRQKRLIFSTITSKMNLSEEVDLEDYVARPDKISGADINSICQESGMLAVRENRYIVLAKDFEKAYKTVIKKDEQEHEFYK

Columns and labels:
Experiment in all cases: ITC
[1] = target: FtsH-S6 ATPase R338A/R339A/R342A (ITC protein) (Escherichia coli | , UniProt P43686 337-418, R338A | R339A | R342A)
[2] = target: FtsH-S6 ATPase E356A/E357A (ITC protein) (Escherichia coli | , E356A | E357A)
[3] = target: FtsH-S6 ATPase R342A (ITC protein) (Escherichia coli | , UniProt P43686 337-418, R342A)
[4] = target: B7
[5] = target: FtsH-S6 ATPase K397E (ITC protein) (Escherichia coli | , UniProt P43686 337-418, K397E)
[6] = target: FtsH-S6 ATPase R338A/R342A (ITC protein) (Escherichia coli | , UniProt P43686 337-418, R338A | R342A)
[7] = target: B6
[8] = target: B2
[9] = target: B1
[10] = target: B3
[11] = target: B5
[12] = target: B4

Binder: B1
- Kd [1]: 7470 nM
- dH [1]: -2.2 kcal/mol
- Kd [2]: 71.8 nM
- dH [2]: -27.3 kcal/mol
- Kd [3]: 217 nM
- dH [3]: -22 kcal/mol
- dH [4]: -28.7 kcal/mol
- Kd [5]: 95.2 nM
- dH [5]: -25.6 kcal/mol
- Kd [6]: 2550 nM
- dH [6]: -6.1 kcal/mol

Binder: B2
- dH [4]: -4.9 kcal/mol

Binder: B3
- dH [4]: -24 kcal/mol

Binder: B4
- dH [4]: -25 kcal/mol

Binder: B5
- dH [4]: -17.1 kcal/mol

Binder: B6
- dH [4]: -28.2 kcal/mol

Binder: B7
- Kd [7]: 141 nM
- Kd [8]: 3630 nM
- Kd [9]: 67.3 nM
- Kd [10]: 71.3 nM
- Kd [11]: 313 nM
- Kd [12]: 93 nM
